In patent publication US20040092720A1 (US Dept. of Health and Human Services, published 2004):

Target: T1, recombinant human IL-6 (human, UniProt P05231 30-212, labeled with radioactive iodine)
T1 construct: Labeled probe in solution, added to wells that carry the synthetic peptides; also called IL-6 ligand; Interleukin-6
Experiment: radioiodinated IL-6 on peptide array
Experimental: Synthetic peptide arrays were constructed in 96-well microtiter plates in accordance with the method set forth in WO 91/02714 (Saxinger), and used to test the binding of recombinant human IL-6 that had been labeled with radioactive iodine (radiolabeling by standard methods). After incubating the radiolabeled IL-6 ligand in a well with each synthetic peptide, a washing step was performed to remove unbound label, and the relative level of radioactivity remaining in each well of the plate was evaluated to determine the relative affinity of each peptide for IL-6 ligand.

Row | Binder | Counts/minute bound
1 | RSKTFT (also called RSKTFT) [Peptide C32] | 1340 counts/minute
2 | FELRYRAERSKTFT [Peptide C24] | 5110 counts/minute
3 | AAGSHPSRWAGMG [Peptide A9] | 1470 counts/minute
4 | SHPSRWAGMGRRLLLRSV [Peptide A20] | 12000 counts/minute
5 | GMGRRLLLRSV [Peptide A27] | 6820 counts/minute
6 | RLLLRSV (also called RLLLRSV) [Peptide A31] | 5460 counts/minute
7 | MGRRLLLRSV [Peptide A28] | 7140 counts/minute
8 | WAGMGRRLLLRSV [Peptide A25] | 12200 counts/minute
9 | AAGSHPSRWAGM [Peptide A10] | 1440 counts/minute
10 | RLRFELRYRAERSKTFT [Peptide C21] | 5990 counts/minute
11 | LRFELRYRAERSKTFT [Peptide C22] | 9610 counts/minute
12 | AAGSHP (also called AAGSHP) [Peptide A16] | 1570 counts/minute
13 | SRWAGMGRRLLLRSV [Peptide A23] | 8270 counts/minute
14 | LLLRSV (also called LLLRSV) [Peptide A32] | 1600 counts/minute
15 | ERSKTFT (also called ERSKTFT) [Peptide C31] | 1030 counts/minute
16 | YRLRFELRYRAERSKTFT [Peptide C20] | 7570 counts/minute
17 | AAGSHPSRWAG [Peptide A11] | 1430 counts/minute
18 | SSFYRLRFE [Peptide C13] | 1020 counts/minute
19 | SSFYRL (also called SSFYRL) [Peptide C16] | 865 counts/minute
20 | PSRWAGMGRRLLLRSV [Peptide A22] | 11100 counts/minute
21 | SSFYRLRFELRYRAERSKTFA [Peptide C34] | 17000 counts/minute
22 | SSFYRLRFELRYRAERSKAFT (alanine-scan variant of the domain III 21-mer) [Peptide C36] | 15000 counts/minute
23 | SSFYRLRFELRYRAERSKTAT (alanine-scan variant of the domain III 21-mer) [Peptide C35] | 14800 counts/minute

Row | Binder | Counts/minute bound
24 | SSFYRLRFEARYRAERSKTFT (alanine-scan variant of the domain III 21-mer) [Peptide C44] | 14100 counts/minute
25 | SSFYRLRFELRYRAARSKTFT (alanine-scan variant of the domain III 21-mer) [Peptide C40] | 17300 counts/minute
26 | SSFYRLRFELRYRAERSATFT (alanine-scan variant of the domain III 21-mer) [Peptide C37] | 7220 counts/minute
27 | SSFYRLRAELRYRAERSKTFT (alanine-scan variant of the domain III 21-mer) [Peptide C46] | 13400 counts/minute
28 | SSFYRLRFELRYRAEASKTFT (alanine-scan variant of the domain III 21-mer) [Peptide C39] | 3430 counts/minute
29 | SSFYRLRFALRYRAERSKTFT (alanine-scan variant of the domain III 21-mer) [Peptide C45] | 26800 counts/minute
30 | SSFYRLRFELRARAERSKTFT (alanine-scan variant of the domain III 21-mer) [Peptide C42] | 17500 counts/minute
31 | SSFYRLRFELRYAAERSKTFT (alanine-scan variant of the domain III 21-mer) [Peptide C41] | 6740 counts/minute
32 | SSFYRLRFELAYRAERSKTFT (alanine-scan variant of the domain III 21-mer) [Peptide C43] | 7550 counts/minute
33 | SSFYRLRFELRYRAERAKTFT (alanine-scan variant of the domain III 21-mer) [Peptide C38] | 12300 counts/minute
34 | SSFYRLAFELRYRAERSKTFT (alanine-scan variant of the domain III 21-mer) [Peptide C47] | 9760 counts/minute
35 | AAGSHPSRWAGMGRRLL [Peptide A5] | 2750 counts/minute
36 | LRYRAERSKTFT [Peptide C26] | 6380 counts/minute
37 | SSFYRLRF [Peptide C14] | 952 counts/minute
38 | GSHPSRWAGMGRRLLLRSV [Peptide A19] | 11000 counts/minute
39 | ELRYRAERSKTFT [Peptide C25] | 2200 counts/minute
40 | RWAGMGRRLLLRSV [Peptide A24] | 12100 counts/minute
41 | GRRLLLRSV [Peptide A29] | 5370 counts/minute
42 | RAERSKTFT [Peptide C29] | 1430 counts/minute
43 | SFYRLRFELRYRAERSKTFT [Peptide C18] | 12800 counts/minute
44 | AAGSHPSRWAGMGR [Peptide A8] | 1480 counts/minute
45 | AAGSHPSRWA [Peptide A12] | 1330 counts/minute
46 | RRLLLRSV [Peptide A30] | 5970 counts/minute

Row | Binder | Counts/minute bound
47 | AERSKTFT [Peptide C30] | 1200 counts/minute
48 | YRAERSKTFT [Peptide C28] | 2400 counts/minute
49 | AAGSHPSRWAGMGRRLLLRSA (alanine-scan variant of the domain I 21-mer) [Peptide A34] | 11800 counts/minute
50 | AAGSHPSRWAGMGRALLLRSV (alanine-scan variant of the domain I 21-mer) [Peptide A40] | 4250 counts/minute
51 | AAGSHPSRWAGMGARLLLRSV (alanine-scan variant of the domain I 21-mer) [Peptide A41] | 4460 counts/minute
52 | AAGSHPSRWAGMGRRLALRSV (alanine-scan variant of the domain I 21-mer) [Peptide A38] | 7080 counts/minute
53 | AAGSHPSRWAGMGRRLLLASV (alanine-scan variant of the domain I 21-mer) [Peptide A36] | 4900 counts/minute
54 | AAGSHPSRWAGMGRRLLARSV (alanine-scan variant of the domain I 21-mer) [Peptide A37] | 7730 counts/minute
55 | AAGSHPSRWAGMGRRLLLRAV (alanine-scan variant of the domain I 21-mer) [Peptide A35] | 11200 counts/minute
56 | AAGSHPSRWAGMGRRALLRSV (alanine-scan variant of the domain I 21-mer) [Peptide A39] | 5280 counts/minute
57 | AAGSHPSRWAGMGRR [Peptide A7] | 1340 counts/minute
58 | RYRAERSKTFT [Peptide C27] | 3150 counts/minute
59 | AAGSHPSRW [Peptide A13] | 1520 counts/minute
60 | AAGSHPS (also called AAGSHPS) [Peptide A15] | 1320 counts/minute
61 | AGSHPSRWAGMGRRLLLRSV [Peptide A18] | 13400 counts/minute
62 | AGMGRRLLLRSV [Peptide A26] | 7620 counts/minute
63 | SSFYRLR (also called SSFYRLR) [Peptide C15] | 991 counts/minute
64 | RFELRYRAERSKTFT [Peptide C23] | 5310 counts/minute
65 | AAGSHPSRWAGMGRRLLL [Peptide A4] | 5280 counts/minute
66 | FYRLRFELRYRAERSKTFT [Peptide C19] | 10100 counts/minute
67 | AAGSHPSR [Peptide A14] | 1350 counts/minute
68 | HPSRWAGMGRRLLLRSV [Peptide A21] | 12000 counts/minute
